Laboratory results taken from patent US20260043020A1, “BINDING MEMBERS WITH ALTERED DIVERSITY SCAFFOLD DOMAINS” (priority 2016, published 2026).

Target: rat TFR (rat) (UniProt Q99376)
Assay: cell-based or functional assay

% transcytosis after 6 h (in vitro rat BBB model): 0.2%
Substance: OX26-Fab
